Results on 1 substance are retold here after patent US20040043378A1.

For this assay, the target named is lysine-acetylated histone H4 peptide SGRGKGG-AcK-GLGK (Lys8 acetylated). The experiment in a line: 15N-HSQC backbone amide chemical shift change upon binding to the AcK peptide.

In the case of “bromodomain of P/CAF (residues 719-832 of SEQ ID NO:2) (from UniProt Q92831 719-832)”, the maximum weighted chemical shift difference (Tyr809) was determined as 0.16 ppm.
